{"source": "patent US20240043504A1", "about": "(published 2024)", "binders": {"B1": {"name": "mAb10921 (antibody, V domains shown)", "VH": "EVQLVESGGGLVQPGGSLRLSCAASGITVSSNYMSWVRQAPGKGLEWVSVIYSGGSTFYADSVKGRFTISRHNSKNTLYLQMNSLRAEDTAVYYCARERNFDAFDIWGQGTMVTVSS", "VL": "DIQMTQSPSSVSASVGDRVTITCRASQGISSWLAWYQQKPGKAPKLLIYAASSLQSGVPSRFSGSGSGTDFTLTISSLQPEDFATYYCQQANSFPLFTFGPGTKVDIKR"}, "B2": {"name": "mAb10957 (antibody, V domains shown)", "VH": "EVQLVESGGGLVQPGGSLRLSCAASGVTVSSNYMSWVRQAPGKGLEWVSVIYSGGSTFYADSVKGRFTISRDNSKNTLFLQMNSLRIEDTAVYYCARDLGPYGMDVWGQGTTVTVSS", "VL": "DIQLTQSPSFLSASVGDRVTITCRASQGISSYLAWYQQKPGKAPKLLIYAASTLQSGVPSRFSGSGSGTQFILTISSLQPEDFATYYCQQLNSYPGFTFGPGTKVDIKR"}, "B3": {"name": "mAb10965 (antibody, V domains shown)", "VH": "EVQLVESGGGLIQPGGSLRLSCAASVFTVSYNYMSWVRQAPGKGLEWVSVIYSGGSTYYADSVKGRFTISRDNSKNTLYLQMNSLRAEDTAVYYCARALPGWGGSFEYFDYWGQGTLVTVSS", "VL": "not shown"}, "B4": {"name": "mAb10936 (antibody, V domains shown)", "VH": "QVQLVESGGGVVQPGRSLRLSCAASGFTFRNYGMHWVRQAPGKGLEWVSVIWYDGSNRYYADSVKGRFTISRDTSKNTLYLQMNSLRAEDTAVYYCARDPPITGTTGGDAFDIWGQGTMVTVSS", "VL": "not shown"}, "B5": {"name": "mAb10939 (antibody, V domains shown)", "VH": "EVQLVESGGGLVQPGGSLRLSCAASGLTVSSNYMNWVRQVPGKGLEWVSVIYSGGSKFYVDSVKGRFTISRHNSKNTLYLQMNSLRPEDTAVYYCTRDAQYYGMDVWGQGTTVTVSS", "VL": "DIQMTQSPSSLSASVGDRVTITCRASQSISTYLHWYQQKPGEAPKLLIYAASSLQSGVPSRFSGSGSGTDFTLTISSLQPEDFATYYCQQSYSTPPEIFGQGTKLEIKR"}, "B6": {"name": "mAb10998 (antibody, V domains shown)", "VH": "EVQLVESGGGLVHPGGSLRLSCAASGLTVSSNYMSWVRQAPGKGLEWVSVIYSGGSTYYADSVKGRFTISRHNSKNTLFLQMNSLRAEDTAVYYCARDRPITGTTLDVWGQGTTVTVSS", "VL": "DIQMTQSPSSLFASVGDRVTITCRASQSISSYLNWYQQKPGKAPKLLIYAASSLQSGVPSRFSGSGSGTDFTLTISSLQPEDFAFYYCQQTYSTPPITFGQGTRLEIKR"}, "B7": {"name": "mAb10956 (antibody, V domains shown)", "VH": "EVQLVESGGGLVQPGGSLRLSCAASGLTVSSNYMSWVRQAPGKGLEWVSVIYSGGSTFYADSVKGRFTISRDNSKNTLYLQMNSLRAEDTAVYYCARDLIKYGMDVWGQGTTVTVSS", "VL": "not shown"}, "B8": {"name": "mAb10930 (antibody, V domains shown)", "VH": "EVQLVESGGGLVQPGRSLRLSCAASGFTFDDYAMYWVRQAPGKGLEWVSGISWNSGSIGYADSVKGRFTISRDNAKNSLYLQMNSLRAADTALYYCAKDKDWNSRGYYYYGMDVWGQGTTVTVSS", "VL": "not shown"}, "B9": {"name": "mAb10969 (antibody, V domains shown)", "VH": "QVQLVESGGGVVQPGRSLRLSCAASGFTFSSYAMHWVRQAPGKGLEWVAVISYDGSNKYYADSVKGRFTISRDNSKNTLYLQMNSLRAEDTAVYYCARDGRTITMVRGVIDDAFDIWGQGTMVTVSS", "VL": "not shown"}, "B10": {"name": "mAb10923 (antibody, V domains shown)", "VH": "QVQLVQSGAEVKKPGASVKVSCKASGYTFINYYIHWVRQAPGQGLEWMGWINPNSGGTNYAQKFQGRVTMTRDTSISTAYMELSRLRSDDTAVYYCAIITIFGVVTWFDPWGQGTLVTVSS", "VL": "not shown"}, "B11": {"name": "mAb10964 (antibody, V domains shown)", "VH": "QVQLQESGPGLVKPSETLSLTCTVSGGSINNYYWIWIRQPPGKGLEWIGYIYHSGSTNYNPSLKSRVTISVDTSKNQFSLKVSSVTAADTAVYYCANMVRGVYEDDYWGQGTLVTVSS", "VL": "DIQMTQSPSSLSASVGDRVTITCRASQSISNYLNWYQQKPGKAPKLLIFAASSLRSGVPSRFSGSGSGTDFTLTISSLHPEDFATYYCQQNYNTPLTFGPGTKVDIKR"}, "B12": {"name": "mAb10971 (antibody, V domains shown)", "VH": "EVQLVESGGGLIQPGGSLRLSCAASGVTVSSNYMSWVRQAPGKGLEWVSVIYSGGSTFYSDSVKGRFSISRDNSKNTLYLQMNSLRAEDTAVYYCARDLYYYGMDVWGQGTTVTVSS", "VL": "DIQLTQSPSFLSASVGDRVTITCRASQGISTYLAWYQQKPGKAPKLLIYAASTLQSGVPSRFSGSGSGTEFTLTISSLQPEDFATYYCQQLDSYPGLTFGGGTKVEIKR"}, "B13": {"name": "mAb10920 (antibody, V domains shown)", "VH": "QVQLVESGGGVVQPGRSLRLSCAASGFTFSYYGMHWVRQAPGKGLEWVAVIWYDGSNKFYADSVKGRFTISRDNSKNTLYLQMNSLRAEDTAVYYCAAARPGYYYGMDVWGQGTTVTVSS", "VL": "DIQMTQSPSSLSASVGDRVTITCRASQGISNYLAWFQQKPGKAPNSLIYAASSLQRGVPSKFSGSGSGTDFTLTISSLQPEDFATYYCQQYNSYPRTFGQGTKVEIKR"}, "B14": {"name": "mAb10935 (antibody, V domains shown)", "VH": "EVQLVESGGGLVQPGGSLRLSCAASGFTVSSNYMSWVRQAPGKGLEWVSLIYSGGSTYYADSVKGRFTISRHNSKNTLYLQMNSLRSEDTAVYYCARVPLGDYYYGMDVWGQGTTVTVSS", "VL": "DIQMTQSPSSLSASVGDRVTITCQASQDINKYLNWYQQKPGKAPKLLIYDASNLETGVPSRFSGSGSGTDFTFTISSLQPEDIATYYCQQSDNLPLTFGGGTKVEIKR"}, "B15": {"name": "mAb10967 (antibody, V domains shown)", "VH": "EVQLVESGGGLVQPGGSLRLSCAASGFTVSSNYMSWVRQAPGKGLEWVSVIYPGGSTFYADSVKGRFTISRDNSKNTLYLQMNSLRAEDTAVYYCARDQRDFAWGQGTLVTVSS", "VL": "DIQMTQSPSSLSASVGDRVTITCQASQDISNYLNWYQQKPGKAPKLLIYDASNLETGVPSRFSGSGSGTDFTFTISGLQPEDIATYYCQQYDNLPPTFGQGTRLEIKR"}, "B16": {"name": "mAb10954 (antibody, V domains shown)", "VH": "EVQLVESGGGLVQPGGSLRLSCAASGITVSSNYMSWVRQAPGKGLEWVSLIYSGGSTYYADSVKGRFTISRDNSKNTLYLQMNSLRVEDTAVYYCARDHGMAAAGYNYWGQGTLVTVSS", "VL": "DIQMTQSPSSLSASVGDRVTITCQASQDINKYLNWYQQKPGKAPKLLIYDASNLETGVPSRFSGSGSGTDFTFTINSLQPEDFATYFCQQYDNLPPAFGQGTKVEIKR"}, "B17": {"name": "mAb10938 (antibody, V domains shown)", "VH": "EVQLVESGGGLVQPGGSLRLSCAVSGFTVSSNYMSWVRQAPGKGLEWVSLIYSGGSTFYADSVKGRFTISRHNSKNTLYLQMNSLRAEDTAVYYCAREGGYSYDYNYWGQGTLVTVSS", "VL": "DIQMTQSPSSLSASVGDRVTITCQASQDIRNYLNWYQQKPGKAPKLLIYDASNLETGVPSRFSGIGSGTDFTFTISSLQPEDIATYYCQQYDNLPITFGQGTRLEIKR"}, "B18": {"name": "mAb10955 (antibody, V domains shown)", "VH": "EVQLVESGGGLVQPGGSLRVSCAASGFTVSRNYMSWVRQAPGKGLEWVSVIYSGGSTFYADSVKGRFTISRDNSKNTLYLQMNSLRAEDTAIYYCARYIPRFDPWGQGTLVTVSS", "VL": "DIQMTQSPSSLSASVGDRVTITCQASQDISNYLNWFQQKPGRAPKLLIYDASNLETGVPSRFSGSGSGTDFTFTISSLQPEDIATYYCQQYDNLPITFGQGTRLEIKR"}, "B19": {"name": "mAb10984 (antibody, V domains shown)", "VH": "EVQLVESGGGLVQPGGSLRLSCAASGLTVNRNYMSWVRQAPGKGLEWVSLIYSGGSTYYADSVKGRFTISRDNSKNTLYLQMNSLRLEDTAVYYCARGELGIPYGMDVWGQGTTVTVSS", "VL": "QSVLTQPPSVSAAPGQKVTISCSGSSSNIGNNYVSWYQQLPGTAPKLLIYDNNKRPSGIPDRFSGSKSGTSATLGITGLQTGDEADYYCGTWDSSLSAGVFGGGTKLTVLG"}, "B20": {"name": "mAb10982 (antibody, V domains shown)", "VH": "EVQLVESGGGLVQPGGSLRLSCAASGLTVSSNYMSWVRQAPGKGLEWVSVIYSGGTTYYADSVKGRFTISRHNSKNTLSLQMNSLRAEDTAVYYCARGEGANYYGMDVWGQGTTVTVSS", "VL": "QSVLTQPPSVSGAPGQRVTISCTGSSSNIGTGYDVHWYQQLPGTAPKLLIYGNSNRPSGVPDRFSGSKSGTSASLAITGLQAEDEADYYCQSYDSSLSGYVVFGGGTKLTVLG"}, "B21": {"name": "mAb10986 (antibody, V domains shown)", "VH": "EVQLVESGGGLVQPGGSLRLSCAASEFTVSSNYMSWVRQAPGKGLEWVSVIYSGGSTFYADSVKGRFTISRDNSKNTLYLQMNSLRAEDTAVYYCARALPYGDLHFDYWGQGTLVTVSS", "VL": "QSVLTQPPSVSGAPGQRVTISCTGSSSNIGTGYDVHWYQQLPGTAPKLLIYGNTNRPSGVPDRFSGSKSGTSASLAITGLQAEDEADYYCQSYDSSLSDSYVFGTGTKVTVLG"}, "B22": {"name": "mAb10985 (antibody, V domains shown)", "VH": "EVQLVESGGGLVQPGRSLRLSCAASGFTFDDYAMHWVRQAPGKGLEWVSGISWNRGSIGYADSVKGRFTISRDNAKNSLYLQMSSLRAEDTALYYCAKDGERWDSVVVPSARNGMDVWGQGTTVTVSS", "VL": "QSVLTQPPSVSGAPGQRVTISCTGSSSNIGAGYDVHWYQQLPGTAPKLLIYGNSNRPSGVPDRFSGSKSGTSASLAITGLQAEDEADYYCQSYDSSLSGSYVFGTGTKVTVLG"}, "B23": {"name": "mAb10937 (antibody, V domains shown)", "VH": "QITLKESGPTLVKPTQTLTLTCTFSGFSLSTNVVGVGWIRQPPGKALEWLALIYWNDDKRYSPSLKSRLTITKDTSKNQVVLTMTNMDPVDTATYYCAHGPTGDYFDYWGQGTLVTVSS", "VL": "not shown"}, "B24": {"name": "mAb10966 (antibody, V domains shown)", "VH": "EVQLVESGGGLVQPGGSLRLSCAASGLTVSSNYMSWVRQAPGKGLEWVSVIYSGGSTFYADSVKGRFTISRDNSKNTLYLQMNSLRPEDTAVYYCAREGRIAATGYGMDVWGQGTTVTVSS", "VL": "not shown"}, "B25": {"name": "mAb10932 (antibody, V domains shown)", "VH": "EVQLVESGGGLVQSGGSLRLSCAASGLTVSSNYMSWVRQAPGKGLEWVSVIYSGGSTFYSDSVKGRFTISRHNSKNTLYLQMNSLRAEDTAVYYCARARGDAFDIWGQGTMVTVSS", "VL": "not shown"}}, "note": "Where “and” joins values, the source holds several entries; their conditions need not be identical. Equal entries are not always repeated.", "data": [{"target": "receptor binding domain (RBD) portion of the SARS-CoV-2 Spike protein (amino acids Arg319-Phe541) ex (SARS-CoV-2)", "values": [{"binder": "B1", "IC50": "0.433 nM and 0.507 nM"}, {"binder": "B2", "IC50": "0.169 nM"}, {"binder": "B3", "IC50": "0.213 nM"}, {"binder": "B4", "IC50": "0.0875 nM and 0.071 nM"}, {"binder": "B5", "IC50": "0.175 nM and 0.263 nM"}, {"binder": "B6", "IC50": "4.3 nM"}, {"binder": "B7", "IC50": "0.185 nM"}, {"binder": "B8", "IC50": "0.282 nM"}, {"binder": "B9", "IC50": "0.215 nM"}, {"binder": "B10", "IC50": "0.149 nM and 0.184 nM"}, {"binder": "B11", "IC50": "0.0683 nM and 0.0625 nM"}, {"binder": "B12", "IC50": "0.149 nM"}, {"binder": "B13", "IC50": "0.338 nM and 0.139 nM"}, {"binder": "B14", "IC50": "0.102 nM and 0.0694 nM"}, {"binder": "B15", "IC50": "0.28 nM"}, {"binder": "B16", "IC50": "0.0711 nM"}, {"binder": "B17", "IC50": "0.275 nM"}, {"binder": "B18", "IC50": "0.141 nM"}, {"binder": "B19", "IC50": "0.0775 nM"}, {"binder": "B20", "IC50": "0.116 nM"}, {"binder": "B21", "IC50": "0.0754 nM"}, {"binder": "B22", "IC50": "0.0696 nM and 0.0411 nM"}, {"binder": "B23", "IC50": "0.0649 nM"}, {"binder": "B24", "IC50": "0.16 nM"}, {"binder": "B25", "IC50": "0.373 nM"}]}]}
